The values below come from patent publication US20230183352A1.

In assay [1] the target is Claudin 18.1 (CLDN18.1), expressed on CHOS-CLDN18.1 cells (UniProt P56856). The experiment in a line: FACS, CHOS-CLDN18.1 cells, 10 µg/ml. (In general: In flow cytometry, cells or beads pass a laser one at a time.)
The target in assay [2] is Biotin QP004.3 (biotin-PDL1-FC) (human) (UniProt Q9NZQ7). The experiment in a line: binding ELISA, antibody coated, biotin-PDL1-FC titrated.
The target is the same in assay [3]. The experiment in a line: blocking ELISA, PD1-FC coated, biotin-PDL1-FC plus antibody; competitor PD1-FC. Background: An ELISA detects its analyte on a solid surface through an enzyme-linked reagent.

Claudin 18.1 (CLDN18.1), expressed on CHOS-CLDN18.1 cells, sequence (P56856 whole entry): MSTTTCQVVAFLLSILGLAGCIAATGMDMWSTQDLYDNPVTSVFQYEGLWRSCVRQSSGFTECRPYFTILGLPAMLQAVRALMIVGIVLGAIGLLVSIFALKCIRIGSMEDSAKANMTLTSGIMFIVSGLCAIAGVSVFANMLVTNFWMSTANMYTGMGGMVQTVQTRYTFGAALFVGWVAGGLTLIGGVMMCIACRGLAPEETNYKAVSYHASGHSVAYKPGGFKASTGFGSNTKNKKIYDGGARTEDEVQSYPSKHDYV
Biotin QP004.3 (biotin-PDL1-FC) (human), sequence (Q9NZQ7 19-238 limits assumed): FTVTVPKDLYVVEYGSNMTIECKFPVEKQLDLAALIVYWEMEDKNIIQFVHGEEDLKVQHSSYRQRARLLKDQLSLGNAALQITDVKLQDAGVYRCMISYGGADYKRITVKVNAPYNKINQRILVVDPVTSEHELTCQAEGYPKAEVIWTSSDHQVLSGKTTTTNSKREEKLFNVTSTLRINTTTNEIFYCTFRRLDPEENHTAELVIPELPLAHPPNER

B1: QP190191 (antibody, human IgG1, V domains shown)
VH: EVKLVESGGGLVKPGGSLKLSCAASGFTFSNYAMSWVRQTPEKRLEWVASIISGGRTYYLDSEKGRFTISRDNARNNLYLQMSSLRSEDTAMYYCTRIYYGNSFDYWGQGTTLTVSS
VL: DIVMTQSPSSQTVTAGEKVTMSCKSSQSLLNSGNQKNYLTWYQQKPGQPPKLLIYWASTRESGVPDRFTGSGSGTDFTLTISNMQAEDLAVYYCQNDYSYPFTFGSGTKLEIK
In assay [1], B1 had an MFI of 1060.

B2: QP201202 (antibody, human IgG1, V domains shown)
VH: EVQLQQSGPELVKPGASVKMSCKASGYTFTNYFVHWVKQKPGQGLEWIGYINPYNDDTKYNEKFKGKATLTSDKSSSTAYMDLSSLTSEDSAVYYCLSLRFFAYWGQGTLVTVSA
VL: DIVMTQSPSSLTVTAGEKVTMSCKSSQSLLNSGNQKNYLTWYQQKPGQAPKLLIYWASTRESGVPDRFIGSGSGTDFTLTISHVQAEDLAVYFCQNDYSYPLTFGAGTNLELK
With B2, in assay [1], the MFI stood at 1150.

B3: QP199200 (antibody, human IgG1, V domains shown)
VH: DVQLVESGGGLVQPGGSRKLSCAASGFTFSSFGMHWVRQAPEKGLEWVAYISSGSNSIYYVDTVKGRFTISRDNPKNTLFLQMTSLKSEDTAMYYCARNAYYGNSFDYWGQGTTLTVSS
VL: DIVMTQSPSSLTVTAGEKVTMSCKSSQSLLNSGNQKNYLTWYQQKPGQPPKLLIYWASTRESGVPDRFTGSGSGTVFTLTISSVQAEDLAVYFCQNNYYYPLTFGAGTKLELK
For B3, in assay [1], the MFI came out at 918.

B4: QP207208 (antibody, human IgG1, V domains shown)
VH: EVQLQQSGPELVKPGASVKMSCKASGYTFTSYIMHWVKQKPGQGLEWIGYINPYNDGTKYNEKFKGKATLTSDKSSSTVYMELSSLTSEDSAVYCCARLGFTTRNAMDYWGQGTSVTVSS
VL: DIVMTQSPSSLSVSAGEKVTMNCKSSQSLLNSGNQKNYLAWYQQKPGQPPKLLIYGASTRESGVPDRFTGSGSGTDFTLTISSVQAEDLAVYYCQNDHSYPFTFGSGTKLEIK
In assay [1], B4 came in with an MFI of 1320.

B5: QP192193 (antibody, human IgG1, V domains shown)
VH: QVQLQQSGAELVRPGSSVKISCKASGYAFSSYWMNWVKQRPGQGLEWIGQIYPGNGDTTYNGKFKGQATLTADKSSSTVYMQLSSLTSEDSAVYFCARFVKGNAMDYWGQGTSVTVSS
VL: DIVMTQSPSSLTVTAGEKVTMSCKSSQSLLNSGNQKNYLTWYQQNPGQPPKMLIYWASTRESGVPDRFTGSGSGIDFSLTISSVQAEDLALYYCQNAYSYPFTFGSGTKLEIK
Molecule B5 yielded an MFI in assay [1] of 1030.

B6: QP320 (Fc fusion, not shown: a dimerising Fc or GST)
chain: EVQLLESGGGLVQPGGSLRLSCAASGFTYGTYAMSWVRQAPGKGLEWVSCIDIYGRASYTDPVKGRFTISRDNSKNTLYLQMNSLRAEDTAVYYCAARDFGYCTASWVHEGFSRYWGQGTLVTVSS
For the molecule B6, in assay [2], the ELISA reading at 0.0007 µg/ml biotin-PDL1-FC came to 0.125, the ELISA reading at 0.0021 µg/ml biotin-PDL1-FC worked out at 0.114, the ELISA reading at 0.0062 µg/ml biotin-PDL1-FC was found to be 0.108 and the ELISA reading at 0.0185 µg/ml biotin-PDL1-FC is 0.0792. Also, in assay [2], the ELISA reading at 0.0556 µg/ml biotin-PDL1-FC amounted to 0.0843, the ELISA reading at 0.1667 µg/ml biotin-PDL1-FC was 0.0957, the ELISA reading at 0.5000 µg/ml biotin-PDL1-FC is 0.142 and the ELISA reading at 2.0000 µg/ml biotin-PDL1-FC amounted to 0.23. For the same molecule, in assay [3], the ELISA reading at 0.0457 nM antibody worked out at 1.21, the ELISA reading at 0.1372 nM antibody turned out to be 1.3, the ELISA reading at 0.4115 nM antibody is 1.47 and the ELISA reading at 1.2346 nM antibody stood at 1.08. In assay [3], the ELISA reading at 3.7037 nM antibody came out at 1.11, the ELISA reading at 11.1111 nM antibody is 1.12, the ELISA reading at 33.3333 nM antibody is 1.02 and the ELISA reading at 100.0000 nM antibody is 0.793.

B7: QP324 (Fc fusion, not shown: a dimerising Fc or GST)
chain: EVQLLESGGGLVQPGGSLRLSCAASGFTYGTYAMSWVRQAPGKGLEWVACIDIYGRTSYTDPVKGRFTISQDNSKNTLYLQMNSLRAEDTAVYYCAARDFGYCTASWVHEGFSRYWGQGTLVTVSS
For B7, in assay [2], the ELISA reading at 0.0007 µg/ml biotin-PDL1-FC was 0.192, the ELISA reading at 0.0021 µg/ml biotin-PDL1-FC is 0.141, the ELISA reading at 0.0062 µg/ml biotin-PDL1-FC was 0.15 and the ELISA reading at 0.0185 µg/ml biotin-PDL1-FC came out at 0.107. Besides, in assay [2], the ELISA reading at 0.0556 µg/ml biotin-PDL1-FC came out at 0.0882, the ELISA reading at 0.1667 µg/ml biotin-PDL1-FC came to 0.129, the ELISA reading at 0.5000 µg/ml biotin-PDL1-FC stood at 0.201 and the ELISA reading at 2.0000 µg/ml biotin-PDL1-FC is 0.413. Besides, in assay [3], the ELISA reading at 0.0457 nM antibody was determined as 1.29, the ELISA reading at 0.1372 nM antibody was found to be 1.06, the ELISA reading at 0.4115 nM antibody came out at 0.901 and the ELISA reading at 1.2346 nM antibody stood at 0.879. Besides, in assay [3], the ELISA reading at 3.7037 nM antibody stood at 0.895, the ELISA reading at 11.1111 nM antibody was 0.753, the ELISA reading at 33.3333 nM antibody came to 0.737 and the ELISA reading at 100.0000 nM antibody amounted to 0.661.

B8: QP325 (Fc fusion, not shown: a dimerising Fc or GST)
chain: EVQLLESGGGLVQPGGSLRLSCAASGFTYGTYAMSWFRQAPGKGLEGVACIDIYGRTSYTDPVKGRFTISQDNSKNTLYLQMNSLRAEDTAVYYCAARDFGYCTASWVHEGFSRYWGQGTLVTVSS
Take B8: in assay [2], the ELISA reading at 0.0007 µg/ml biotin-PDL1-FC turned out to be 0.182, the ELISA reading at 0.0021 µg/ml biotin-PDL1-FC was 0.598, the ELISA reading at 0.0062 µg/ml biotin-PDL1-FC came out at 1.32 and the ELISA reading at 0.0185 µg/ml biotin-PDL1-FC is 2.12. In assay [2], the ELISA reading at 0.0556 µg/ml biotin-PDL1-FC was 2.78, the ELISA reading at 0.1667 µg/ml biotin-PDL1-FC was found to be 3.11, the ELISA reading at 0.5000 µg/ml biotin-PDL1-FC is 3.21 and the ELISA reading at 2.0000 µg/ml biotin-PDL1-FC is 3.42. Further, in assay [3], the ELISA reading at 0.0457 nM antibody was 1.08, the ELISA reading at 0.1372 nM antibody came to 1.02, the ELISA reading at 0.4115 nM antibody was 0.975 and the ELISA reading at 1.2346 nM antibody was 0.995. Also, in assay [3], the ELISA reading at 3.7037 nM antibody was 1.03, the ELISA reading at 11.1111 nM antibody amounted to 0.513, the ELISA reading at 33.3333 nM antibody worked out at 0.238 and the ELISA reading at 100.0000 nM antibody was 0.156.

B9: QP1166 (Fc fusion, not shown: a dimerising Fc or GST)
chain: QVQLVESGGDSVQPGGSLRLSCAASGFTYGTYAMSWFRQAPGKEREGVACIDIYGRTSYTDPVKGRFTISQDNAKNTLYLQMNSLKPEDTAMYYCAARDFGYCTASWVHEGFSRYWGQGTQVTVSS
B9: in assay [2], the ELISA reading at 0.0007 µg/ml biotin-PDL1-FC was 0.217, the ELISA reading at 0.0021 µg/ml biotin-PDL1-FC came to 0.56, the ELISA reading at 0.0062 µg/ml biotin-PDL1-FC came out at 1.55 and the ELISA reading at 0.0185 µg/ml biotin-PDL1-FC was 2.57. In assay [2], the ELISA reading at 0.0556 µg/ml biotin-PDL1-FC came to 3.23, the ELISA reading at 0.1667 µg/ml biotin-PDL1-FC amounted to 3.13, the ELISA reading at 0.5000 µg/ml biotin-PDL1-FC stood at 3.28 and the ELISA reading at 2.0000 µg/ml biotin-PDL1-FC was determined as 3.41. Further, in assay [3], the ELISA reading at 0.0457 nM antibody came to 1.16, the ELISA reading at 0.1372 nM antibody worked out at 1.24, the ELISA reading at 0.4115 nM antibody stood at 1.06 and the ELISA reading at 1.2346 nM antibody was found to be 1.13. Further, in assay [3], the ELISA reading at 3.7037 nM antibody came out at 1.06, the ELISA reading at 11.1111 nM antibody stood at 0.508, the ELISA reading at 33.3333 nM antibody is 0.239 and the ELISA reading at 100.0000 nM antibody was determined as 0.167.
